Publication PMC3950707

Key:
[1] = test system: LexA; assay: single-molecule FRET (smTIRF), koff/kon; settings: smTIRF and PIFE on DNA: 10 mM Tris-HCl pH 8.0, 130 mM NaCl, 10% glycerol, 0.005% Tween20, 1% BME (0.1 mg/ml BSA in smTIRF and LexA PIFE), nucleosome smTIRF and …
[2] = test system: Gal4(1-147) (Saccharomyces cerevisiae); assay: single-molecule FRET (smTIRF), koff/kon; settings: aminoC6 at 5' end; smTIRF and PIFE on DNA: 10 mM Tris-HCl pH 8.0, 130 mM NaCl, 10% glycerol, 0.005% Tween20, 1% BME (0.1 mg/ml BSA in smTIRF and LexA PIFE); nucleosome smTIRF and …
[3] = test system: LexA; assay: ensemble PIFE; settings: 0.2 nM DNA, non-cooperative fit; aminoC6 at 5' end; aminoC6dT in reverse primer; smTIRF and PIFE on DNA: 10 mM Tris-HCl pH 8.0, 130 mM NaCl, 10% glycerol, 0.005% Tween20, 1% BME (0.1 mg/ml BSA in smTIRF and LexA PIFE); nucleosome smTIRF and …
[4] = test system: LexA; assay: single-molecule PIFE (smTIRF), koff/kon; settings: aminoC6 at 5' end; aminoC6dT in reverse primer; smTIRF and PIFE on DNA: 10 mM Tris-HCl pH 8.0, 130 mM NaCl, 10% glycerol, 0.005% Tween20, 1% BME (0.1 mg/ml BSA in smTIRF and LexA PIFE); nucleosome smTIRF and …
[5] = test system: Gal4(1-147) (Saccharomyces cerevisiae); assay: ensemble PIFE; settings: 100 pM DNA (titration-limited), Hill 1.5; legend error 5; internal aminoC6dT in both primers; smTIRF and PIFE on DNA: 10 mM Tris-HCl pH 8.0, 130 mM NaCl, 10% glycerol, 0.005% Tween20, 1% BME (0.1 mg/ml BSA in smTIRF and LexA PIFE); nucleosome smTIRF and …
[6] = test system: Gal4(1-147) (Saccharomyces cerevisiae); assay: EMSA; settings: 200 pM DNA (titration-limited), Hill 1.5; legend 240 +/- 10; poly-dIdC; internal aminoC6dT in both primers; smTIRF and PIFE on DNA: 10 mM Tris-HCl pH 8.0, 130 mM NaCl, 10% glycerol, 0.005% Tween20, 1% BME (0.1 mg/ml BSA in smTIRF and LexA PIFE); nucleosome smTIRF and …
[7] = test system: Gal4(1-147) (Saccharomyces cerevisiae); assay: single-molecule PIFE intensity histograms (smTIRF); settings: Hill 2; Fig 4 legend gives 5 +/- 1; koff << 5e-4 s-1; internal aminoC6dT in both primers; smTIRF and PIFE on DNA: 10 mM Tris-HCl pH 8.0, 130 mM NaCl, 10% glycerol, 0.005% Tween20, 1% BME (0.1 mg/ml BSA in smTIRF and LexA PIFE); nucleosome smTIRF and …

Substance: LexA dinucleosome array
- Kd ([1]; internal aminoC6dT): 40000 nM

Substance: nucDNA-Gal4 mononucleosome
- Kd [2]: 0.051 nM

Substance: nucDNA-LexA mononucleosome
- Kd ([1]; aminoC6 at 5' end): 40000 nM

Substance: dsDNA-LexA
- Kd [3]: 0.13 nM
- Kd [4]: 0.07 nM

Substance: dsDNA-Gal4
- K half [5]: 0.042 nM
- K half [6]: 0.242 nM
- K half [7]: 5 pM
